System: cyanobacterial flavodoxin

Substance | flavodoxin photoreduction turnover rate | fold decrease of flavodoxin reduction against WT PSI | linear rate of flavodoxin photoreduction relative to JVD-1b^H6 PSI | linear rate of flavodoxin photoreduction relative to WT^H6 PSI
PSI-MeHydA complex (chimeric photosystem I carrying PsaC-MeHydA, from strain ΨH3^H6) | 0.7±0.1 Flvd s^-1 (PSI)^-1 | lowers flavodoxin reduction by a factor of 6-8 | 12.3±2.4% relative to JVD-1b^H6 PSI | ˜15.9±2.4% that of WT^H6
wild-type photosystem I purified from strain JVD-1B^H6 | 5.7±0.3 Flvd s^-1 (PSI)^-1 | – | – | –
wild-type photosystem I purified from strain WT^H6 (PBC4-2[pBSEP5.8]) | 4.4±0.6 Flvd s^-1 (PSI)^-1 | – | – | –
